This is an account of results in patent US8951750B2 (BASF SE, priority 2007, dated 2015).

Data set [1] concerns AMDase from Mesorhizobium sp. BNC1. As to the kind of experiment: BTB activity assay, alkenyl-substituted substrates of formula I. The format is biochemical. The conditions noted are these: 30° C. Here is the method:
(§1) This method involves measuring spectrophotometrically at 620 nm the change of yellow colour to green/blue of pH indicator—BTB with increasing concentration of [OH^−] formed during the decarboxylation reaction. […] More concentrated buffer (10 mM) gives better results with higher concentration of enzyme or quicker reactions since changes of colour are slower due to higher buffer capacity.
(§2) All kinetics assays were performed on an Anthos Zenyth 3100 96-well microplate reader. 10 μl of 20-500 mM phenylmalonate or methyl-phenylmalonate solution (pH adjusted to 7.2) was added to 180 μl of 5-10 mM MOPS buffer pH 7.2 containing 0.0186 mM bromothymol blue. The reaction was initiated by addition of 10 μl of decarboxylase solution (0.002-0.02 mM, final concentration). The sensitivity of the reaction depends on the concentration of buffer, lower concentrations give higher sensitivity. The values of KM and kcat were calculated from spectophotometrical measurements at 620 nm of the resulting blue solution using Lineweaver-Burk plot and the following equations: […]
A BTB activity assay was performed as described above. Compounds of formula I, wherein R^2 is methyl and R^1 is phenyl, ethenyl, propen-1-yl, buten-1-yl or 2-methylpropen-1-yl were tested as substrates.

The subject of another data set is C/C=C/C(C)(C(=O)O)C(=O)O. In words: purified protein, by the assay type. The conditions noted are these: other: 30° C., BTB assay, pH 7.2.
For the next data set, the system named is C=CC(C)(C(=O)O)C(=O)O. As to the kind of experiment: purified protein, by the assay type. The conditions noted are these: other: 30° C., BTB assay, pH 7.2.
The subject of data set [2] is CC(C)=CC(C)(C(=O)O)C(=O)O. In words: purified protein, by the assay type. The conditions noted are these: other: 30° C., BTB assay, pH 7.2.
Method: (§3) All kinetics assays were performed on an Anthos Zenyth 3100 96-well microplate reader. […] The reaction was initiated by addition of 10 μl of decarboxylase solution (0.002-0.02 mM, final concentration). The sensitivity of the reaction depends on the concentration of buffer, lower concentrations give higher sensitivity. The values of KM and kcat were calculated from spectophotometrical measurements at 620 nm of the resulting blue solution using Lineweaver-Burk plot and the following equations:
The test system of data set [3] is CC/C=C/C(C)(C(=O)O)C(=O)O. In words: purified protein, by the assay type. The conditions noted are these: other: 30° C., BTB assay, pH 7.2.
Method: as §3
A short description of data set [4]: BTB spectrophotometric assay of kinetic constants, substrate phenylmalonate. The class given is biochemical. The conditions noted are these: for Km / kcat: substrate 2-phenylmalonic acid (1), His6-tagged enzyme, BTB method; for decarboxylase activity in words: substrate phenylmalonate 1, purified enzymes. As to the method:
as §1, §2

The nature of data set [5]: BTB spectrophotometric assay of kinetic constants, substrate 2-methyl-2-phenylmalonate. The format is biochemical. The conditions noted are these: for reaction with 2-methyl-2-phenylmalonic acid (2) (cell spans Km, kcat, kcat/Km) / Km / kcat: substrate 2-methyl-2-phenylmalonic acid (2), BTB method; for Km / kcat: His6-tagged enzyme. As to the method:
as §1, §2

The nature of data set [6]: In vitro decarboxylation of 2-methyl-2-phenylmalonate to 2-phenylpropanoic acid. The class given is biochemical. The conditions noted are these: for absolute configuration of the product: 2-phenylpropionate product. Here is the method: [formula] [formula] [formula] h) In Vitro Decarboxylation of 2-methyl-2-phenylmalonate to 2-phenylpropanoic Acid by AMDase from Bordetella bronchiseptica and Asp/Glu Racemase from Mesorhizobium sp. BNC1.
To 400 μl of 0.1 M TRIS buffer pH 8, 100 μl of 0.5 M water solution (after adjusting pH to 8) of 2-methyl-2-phenylmalonic acid was added. Then 20 μl of an AMDase solution (10 mg/mL) was added and the reaction was stirred at 30° C. for 8 h. Products were extracted with diethyl ether after acidifying with 1 M HCl and methylated with TMS-diazomethane. The reaction was analyzed by GC (conversion up to 95%) and 2-phenylpropanoic acid formation confirmed by GC-MS, ^1H NMR. Both enzyme products (after methylation) had the same configuration (the same peak on GC with chiral column, ee>99%). Thus according to the literature^7 absolute configuration of the product was R.

Data set [7] is described as follows: In vivo plate assay for AMDase activity (BTB), substrate phenylmalonate. The class given is cell-based. The conditions noted are these: E. coli expressing the enzyme. As to the method: Test Petri dishes were prepared using following medium: 1% tryptone, 0.5% yeast extract, 1% sodium chloride, 1% agar, 0.025% bromothymol blue (BTB). Then pH was adjusted to 6.5 and the medium autoclaved. When medium temperature reached 50-60° C. isopropyl-β-D-thiogalactopyranoside (1 mM, final concentration), kanamycin ([…], final concentration) and phenylmalonic acid (0.36%, final concentration) were added. 100 μl of liquid bacterial culture containing AMDase was plated on test Petri dishes. After 2-3 days of incubation at 37° C. the colonies and surrounding area changed colour to green-blue indicating AMDase activity.

For data set [8] the following is noted: substrate 2-phenylmalonic acid (1); literature data (footnote a, ref 6); cited from earlier work.
The conditions of data set [9]: substrate 2-methyl-2-phenylmalonic acid (2); literature data (footnote a, ref 6); cited from earlier work.

Like-named read-outs stand apart in the source and are kept apart here.

Method for C=CC(C)(C(=O)O)C(=O)O: as §3

`C=CC(C)(C(=O)O)C(=O)O` [compound 3, 2-methyl-2-vinylmalonic acid]: in data set [1], the Michaelis constant (Km) was 19.4 mM and the turnover number (kcat) is 8.9 s⁻¹.

For the molecule “AMDase from Bordetella bronchiseptica KU1201 (Bordetella bronchiseptica)”, the Km was 12.8 mM in the data set with C/C=C/C(C)(C(=O)O)C(=O)O, 7.8 mM with C=CC(C)(C(=O)O)C(=O)O, 3.5 mM in data set [2] and 14.4 mM in data set [3]. Further, the turnover number (kcat) in the data set with C/C=C/C(C)(C(=O)O)C(=O)O worked out at 46.2 s⁻¹; in the data set on C=CC(C)(C(=O)O)C(=O)O, 42.8 s⁻¹; in data set [2], 5.2 s⁻¹; in data set [3], 23.9 s⁻¹. Also, the specificity constant (kcat/Km) amounted to 3.6 s⁻¹ mM⁻¹ with C/C=C/C(C)(C(=O)O)C(=O)O, 5.5 s⁻¹ mM⁻¹ in the data set with C=CC(C)(C(=O)O)C(=O)O, 1.5 s⁻¹ mM⁻¹ in data set [2] and 1.6 s⁻¹ mM⁻¹ in data set [3].

B1: protein NP_888076.1 from Bordetella bronchiseptica RB50: Putative decarboxylase [Bordetella bronchiseptica RB50], SEQ ID NO: 8 (protein, listed as Bordetella bronchiseptica)
chain: MPTPTQMKTTARYRPYAWRAKVGLIVPSTNTINEPEFYRLAPDGVTIHTGRAINAGPATQENYDRMARGVLEAADLIKTAEVDVVAYGCTSGSIVCSLDELCDGMSERVGVPAIATAGAVVAALRALGVRRVAVGTPYIDFVNQREREFLEQYGFEVVSIEGMDLGHTQEERRDIGRVPPQSTFQLARDIDRPQAEAIFLSCTNLATLDMIERIENELGKPVVTSNQATFWACLRLLGLSCAIPGYGRLLTDCLAPITRASYALALEHHHHHH
Take B1: in data set [4], the Michaelis-Menten constant (Km) was found to be 10 mM, the turnover number (kcat) came to 12.4 s⁻¹ and the “decarboxylase activity in words” value is “moderate activity”. Besides, the “reaction with 2-methyl-2-phenylmalonic acid (2) (cell spans Km, kcat, kcat/Km)” value (“reaction” for short) in data set [5] was “No reaction”.

B2: protein EAN08019.1 from Mesorhizobium sp. BNC1: Asp/Glu racemase [Mesorhizobium sp. BNC1], SEQ ID NO: 4, shown to have AMDase activity (protein, listed as Mesorhizobium sp.)
chain: MSAEDPVIGLIVPPAAGLVPPEAVAMYPEVTFHASGLGLKEMTPCGYAGVIDLVGDHAERHAQAGAQAVALMGTSLSFFRGAAFNAELITHMSNRSGLPATTMSQAVVDELKSHGARRIAVVTAYRQDVNNLLAAFLNEHGIEARSLKSLGITSVADVAGTPAKRLLQLCKEAVHDAGPVDAVLISCGGLHTLDVIVDVEISTGLPVVTSATAGVRGAVGLLKRSAETAEHATSKFLTGRALEHHHHHH
For B2, in data set [4], the Km was 9.6 mM, the kcat is 118 s⁻¹ and the “decarboxylase activity in words” value was “very efficient decarboxylase activity”. Further, the “decarboxylase activity in words” value in data set [5] (substrate 2-methyl-2-phenylmalonate 2, purified enzymes) is given as “very efficient decarboxylase activity”. Besides, in data set [5], the Km was 22.2 mM and the catalytic constant (kcat) was 55.8 s⁻¹. For the same molecule, in [6], the “absolute configuration of the product” value was “R-configuration”. Also, the “ee of 2-phenylpropanoic acid product” value in data set [6] (GC with chiral column after methylation) is above 99%.

B3: AMDase from Bordetella bronchiseptica: arylmalonate decarboxylase from Bordetella bronchiseptica, SEQ ID NO: 2, Blast entry BAA02419.1 (protein, listed as Bordetella bronchiseptica)
chain: MQQASTPTIGMIVPPAAGLVPADGARLYPDLPFIASGLGLGSVTPEGYDAVIESVVDHARRLQKQGAAVVSLMGTSLSFYRGAAFNAALTVAMREATGLPCTTMSTAVLNGLRALGVRRVALATAYIDDVNERLAAFLAEESLVPTGCRSLGITGVEAMARVDTATLVDLCVRAFEAAPDSDGILLSCGGLLTLDAIPEVERRLGVPVVSSSPAGFWDAVRLAGGGAKARPGYGRLFDESLEHHHHHH
Consider B3, for which the Km in data set [4] was 10.7 mM; in data set [5], 26.9 mM; in [8] it was 13.9 mM; in [9] it was 25.5 mM. Further, the kcat in data set [4] is 316.1 s⁻¹; in data set [5] it was 278.9 s⁻¹; in [8], “(353)^a ^ s^−1”; in [9], “(29.8)^a s^−1”. Besides, in [6], the “absolute configuration of the product” value was “R-configuration”. Also, the “colour change of BTB indicator (decarboxylase activity)” value (“colour change of BTB indicator” for short) in data set [7] is recorded as “clear change in colour from yellow to blue”.

B4: protein BAA30082.1 from Pyrococcus horikoshii OT3: Hypothetical arylmalonate decarboxylase [Pyrococcus horikoshii OT3], SEQ ID NO: 6 (protein, listed as Pyrococcus horikoshii)
chain: MYGWRRRIGLIVPSSNTTMEPEFWKMAPEGVSIHTARMRLREVTEESLLEMERHAKDAALELADAEVDVIVYGCTSGSLIKGKGYDKEIAKNLEEASGIKTITTSTAVLNALNTLDIQKVVVATPYIDSVNEREKEFLEANGIEVLRIKGLGIVKNTEIGRQEPWVAYKLALEVYTPEADGLFISCTNFRTIEIIDKLEVELGVPVVTSNQATMWYALKTMKVKEKYDMYGTLLKEKLLEHHHHHH
Regarding B4, in [4], the Km came to 41.7 mM, the kcat was 0.09 s⁻¹ and the “decarboxylase activity in words” value was “very low levels of activity”. In data set [5], the “reaction” value is on record as “No reaction”. Also, the “colour change of BTB indicator” value in [7] is “only slow development of colour”.

B5: protein ZP_00801202.1 from Alkaliphilus metalliredigenes QYMF: Asp/Glu racemase [Alkaliphilus metalliredigenes QYMF], SEQ ID NO: 10 (protein)
chain: MSDFSYGGRAKIGLIYPAPGWVMEPEFYLMAPWGVSTYTTRISLKHVNVAELRKLGDQSVEAAELLAQAPLDVIALGCTSGSFVNGSRYDQELIEKMEGVSGGIPCTTTSTAVVAALKALHVTKIAVATPYIDEVNLKAKNFLEAEGLDVVNIKGLGLLQDIEIDRQDMETVYRLAKEVDHVEAQAIVILCTGLRSVPIIEALENDLGKPVISAIQATFWHCLRLSGVRENVEGYGSLLRIEGLLEHHHHHH
modifications: Alkaliphilus metalliredigenes
In the case of B5, in data set [4], the kcat was 0.26 s⁻¹ and the “decarboxylase activity in words” value is “very low levels of activity”. The “reaction” value in [5] is listed as “No reaction”. For the same molecule, the “colour change of BTB indicator” value in data set [7] is reported as “only slow development of colour”.
